Drawing on US20240043563A1, this text covers IC50 of inhibition of MASP-2-catalyzed C4 cleavage in 90% cynomolgus monkey serum and EC50 for one substance.

What is called EC50 is the concentration that produces a half-maximal response.

The target of test [1] is cynomolgus monkey MASP-2 of cynomolgus monkey serum (cynomolgus monkey). In words: cell-based or functional assay.
The target in test [2] is Fc-hMASP-2A-CCS (human) [IgG part: P01857]. In words: ELISA according to Example 5, plate coated with Fc-hMASP-2A-CCS.
Fc-hMASP-2A-CCS (human) [IgG part: P01857], sequence (P01857 other isoform, or with tags, fused parts or gaps limits assumed, form in doubt): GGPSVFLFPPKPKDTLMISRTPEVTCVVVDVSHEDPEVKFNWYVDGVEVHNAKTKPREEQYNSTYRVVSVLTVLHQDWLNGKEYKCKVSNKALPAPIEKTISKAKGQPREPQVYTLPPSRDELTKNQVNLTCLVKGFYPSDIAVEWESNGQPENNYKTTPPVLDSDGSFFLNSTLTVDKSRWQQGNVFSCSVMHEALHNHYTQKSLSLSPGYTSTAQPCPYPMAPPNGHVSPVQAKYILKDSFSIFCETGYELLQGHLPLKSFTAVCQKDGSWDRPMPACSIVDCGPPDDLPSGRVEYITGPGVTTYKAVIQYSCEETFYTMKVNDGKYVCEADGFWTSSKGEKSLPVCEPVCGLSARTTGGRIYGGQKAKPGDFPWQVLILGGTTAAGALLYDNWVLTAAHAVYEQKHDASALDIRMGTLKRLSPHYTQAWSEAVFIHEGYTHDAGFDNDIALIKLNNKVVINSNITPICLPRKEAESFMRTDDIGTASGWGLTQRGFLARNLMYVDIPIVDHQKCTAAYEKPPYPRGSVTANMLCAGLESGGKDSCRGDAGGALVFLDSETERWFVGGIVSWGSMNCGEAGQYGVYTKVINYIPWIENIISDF

Turning to Narsoplimab (antibody), the IC50 of inhibition of MASP-2-catalyzed C4 cleavage in 90% cynomolgus monkey serum in test [1] came out at 94 nM. Besides, the EC50 in test [2] amounted to 0.227 nM.
